{"source": "patent US12677828B2", "about": "“Lipid encasing amphipathic peptides” (Kansas State University Research Foundation, priority 2019, dated 2026)", "key": {"M. sexta larvae": {"test_system": "M. sexta larvae", "assay": "Persistence assay, 3-day and 5-day waiting period before adding larvae", "assay_type": "in vivo, Manduca sexta", "conditions": "Novarulon 0.02%; both waiting periods (3-day, 5-day) before adding first instar larvae", "protocol": "Subsequently, a persistence assay was conducted to see if the LEAP colloidal particles could protect the active ingredient from environmental degradation. Two studies were conducted, one with a 3-day (FIG. 8) and the other with a 5-day (FIG. 9) waiting period before adding the first instar larvae. The methods used to prepare the LEAP colloidal particle encased materials and the preparation of the coated leaves were identical as described above, except that the leaf discs were allowed to sit in the incubator under the previously described conditions outlined above for the designated time period. After the designated waiting period, 1-day old (first instar) M. sexta larvae were place on the treated leaves. Each day the number of dead larvae were counted. Examining FIGS. 8 and 9, it is clear to see that the LEAP colloidal particles containing the active ingredient Novarulon started killing faster than the Novarulon control. […] Since the Novarulon by itself was still active it appears that coating the Novarulon containing oil droplet with the peptide appears to have been ingested more efficiently such that the lethal dose was achieved more rapidly."}, "[1]": {"conditions": "cited from earlier work"}, "Aspergillus nidulans": {"test_system": "Aspergillus nidulans", "assay": "Antifungal activity on spore seeded plates (1% skim milk agar), Example 3", "assay_type": "cell-based", "conditions": "0.5% Captan in 1:1 propionic acid/soy oil, applied as mixture alone (label Captan) or encased in the named peptide; 5 to 40 μL spotted", "protocol": "A 0.5% solution of Captan was prepared in a 1:1 mixture of propionic acid and soy oil (final volume of 10 μL for each peptide). The solution was added to 1 mg of dried peptide. After incubating for 15 min, water (490 μL, pH=3) was added dropwise, then sonicated in a bath sonicator for 5 min at 37° C. and allowed to stand for 20 min. The sample was then centrifuged at room temperature for 10 min at 14K×g. At this point each peptide-lipid complex formed a whitish film on the surface of the water. The volume of water was reduced using a Pipetman leaving a final volume of 150 μL. The solution was again vortexed to resuspend the colloids. An illustration of the colloidal particle with the active ingredient distributed throughout the colloidal body is shown in FIG. 3. A number of different controls were tested along with the peptides prepared with all of the components: soy oil only, soy oil+propionic acid, soy oil+propionic acid+Captan. Volumes of from 5 to 40 μL were spotted on spore seeded plates of Aspergillus nidulans grown on 1% skim milk agar gel) yielding 0.33 and 1.33 μg of active agent delivered, respectively (FIG. 4).\nIn FIG. 4, lawns of A. were seeded just before testing. The actively growing fungus appears greenish yellow in color. For controls (FIG. 5A) soy oil and soy oil+propionic acid (1:1, v/v) were applied directly to the plates at the indicated volumes. […] When the 1:1 soy plus propionic acid was separately encased using the two peptides (FIG. 5B, columns 1 and 2) there was minimal antifungal activity. In FIG. 5C, column 1, Captan was dissolved in the propionic acid prior to mixing with the soy oil."}, "A. nidulans": {"test_system": "A. nidulans", "assay": "Growth inhibition, Captan alone or LEAP encapsulated at different concentrations, Example 4", "assay_type": "cell-based, Aspergillus nidulans", "conditions": "50 μL per plate", "protocol": "In this example, the effectiveness of Captan alone or encased in a LEAP colloidal particle on A. nidulans growth was compared. Different concentrations of Captan were tested for growth inhibition when applied directly to freshly seeded fungi growing on 1% milk plates or after encapsulation as a colloidal particle with a LEAP (h5F-L). Captan was dissolved in a formulated (1:1:2) solution containing propionic acid, soy oil, and a pesticide synergist, Piperonyl butoxide (PBO). The resulting active solution was diluted to the following concentrations: 1%, 0.1%, 0.05%, 0.01%, 0.005%, 0.001%. A volume of 50 μL of the 1:1:2 solution containing the fungicide was combined with 1 mmole of dry peptide and then allowed to stand for 20 minutes. Deionized water was then added to the colloidal mixture to raise the total volume to 1 mL, followed by sonicating the mixture for 5 minutes, and then incubating for 60-90 minutes. A volume of 50 μL for each test solution was added to the center of each plate (FIG. 6)."}, "[2]": {"test_system": "leaves of Vicia faba (Fava beans)", "assay": "Effects of formulations sprayed on leaves", "conditions": "Vicia faba (fava bean), in vivo, 24 h", "protocol": "In this study, we looked at the effects of the Captan fungicide formulation with and without the LEAP peptide when applied to the leaves of Vicia faba (Fava beans). Three formulations were prepared for this experiment: […]\nDeionized water was added to each formulation to a final volume 1 mL and allowed to stand at room temperature for 60-90 min. […]"}, "[3]": {"assay": "Resizing by extrusion through 100 nm polycarbonate filters", "assay_type": "physicochemical", "conditions": "extruded through 100 nm polycarbonate filters", "source_text": "Given that particle sizes for both peptides were above the nanoscale cutoff of 100 nm, the samples were subjected to resizing by extruding them through 100 nm polycarbonate filters. The […]-L particles were resized to about 80 nm after extrusion (data not shown). The […]-L particles could be resized to about 90 nm."}, "[4]": {"assay": "Dynamic light scattering of LEAP alone in water (micelles)", "assay_type": "physicochemical", "conditions": "1 mg peptide in water, no excipient", "protocol": "One mg of the LEAP (Ac-FLIVIKKKK-CONH2, SEQ ID NO:1, where X is F) was dissolved in 500 μL of DDI-RO water. The solution was sonicated for 10 min then allowed to rest at room temperature for approximately 60 min. This solution was further diluted to 10 mL with DDI-RO water prior to dynamic light scattering analysis. Light scattering data was recorded using an Anton-Parr Litesizer 500 instrument and processed using the proprietary ‘Kalliope’ analysis software. The DLS calculations indicated particles with a hydrodynamic diameter of 928.3 nm with peak numerical intensity at 120.09 nm and a polydispersity index of 229.1%."}, "[5]": {"assay": "Average size and zeta potential by light scattering (ZetaPlus), soy oil colloids", "assay_type": "physicochemical", "conditions": "peptide colloids in high purity soy oil", "protocol": "Peptide colloids were prepared with either Ac-FLIVI-KKKKK-CO-NH2 (SEQ ID NO:1, where X is F, “h5F-L”) or Ac-VLIVI-KKKKK-CO-NH2 (SEQ ID NO:1, where X is V, “h5V-L”), in high purity soy oil were tested for average size and zeta potential (surface charge) using light scattering on a ZetaPlus particle sizing instrument. A control was prepared using high purity soy oil mixed with water and sonicated."}, "[6]": {"assay": "Stability of colloids in water solution", "assay_type": "physicochemical", "conditions": "soy oil colloids", "protocol": "(§1) Initial encapsulation studies were carried out using high purity soy oil containing a lipid soluble dye, Nile Red. Studies were carried out using FLIVI-KKKKK (SEQ ID NO:1, where X is F). Increasing concentrations of the peptide (see FIG. 2) were prepared in Trifluoroethanol and dried in vacuo. To each tube, 22 μL of soy oil containing Nile Red dye (1 mg/mL) was added and allowed to stand for 15 min. Distilled/deionized water (480 μL) was then added and mixed repeatedly using a vortex mixer over a period of at least 5 min. The solution became somewhat cloudy as the dye containing colloids formed at the higher peptide concentrations. 25% was encapsulated at 0.5 mM peptide concentration with 80% encapsulated by the 1 mM peptide concentration. The colloids formed using the FLIVI-KKKKK (SEQ ID NO:1, where X is F) sequence remain stable in a water solution for extended periods of time (at least 12 months)."}, "[7]": {"assay": "Encapsulation of soy oil containing Nile Red dye by peptide", "assay_type": "physicochemical", "conditions": "22 μL soy oil with Nile Red, 480 μL water", "protocol": "as §1"}}, "data": [{"compound": "1-[3-chloro-4-phenyl]-3-urea [Novarulon]", "values": [{"measurement": "killing of larvae", "setting": "M. sexta larvae", "value": "still active"}]}, {"compound": "O=C1[C@H]2CC=CC[C@H]2C(=O)N1SC(Cl)(Cl)Cl", "note": "[Captan, (3aR,7aS)-2-[(Trichloromethyl)sulfanyl]-3a,4,7,7a-tetrahydro-1H-isoindole-1,3(2H)-dione]", "values": [{"measurement": "solubility in propionic acid", "setting": "[1]; C3 organic acid, propionic acid", "value": "good solubility"}, {"measurement": "solubility in water relative to acetone and xylene (fold less)", "setting": "[1]; water vs acetone, xylene", "value": 4000, "unit": "fold"}, {"measurement": "antifungal activity", "setting": "Aspergillus nidulans", "value": "not very effective"}, {"measurement": "growth inhibition", "setting": "A. nidulans; 0.1% concentration", "value": "only slight inhibition"}, {"measurement": "growth inhibition", "setting": "A. nidulans; highest concentration (1%), propionic acid, soy oil, PBO (1:1:2)", "value": "strong growth inhibition"}]}, {"compound": "CCC(=O)O", "note": "[propionic acid]", "values": [{"measurement": "leaf damage", "setting": "[2]", "value": "black spots on the leaves after 24 hr"}]}, {"compound": "Ac-FLIVI-KKKKK-CO-NH2 (Ac-FLIVIKKKKK-NH2) [h5F-L, lipid encasing amphipathic peptide]", "values": [{"measurement": "particle size after extrusion", "setting": "[3]", "value": "about 80 nm"}, {"measurement": "peak numerical intensity", "setting": "[4]", "value": 120.09, "unit": "nm"}, {"measurement": "polydispersity index", "setting": "[4]", "value": 229.1, "unit": "%"}, {"measurement": "hydrodynamic diameter", "setting": "[4]; diluted to 10 mL", "value": 928.3, "unit": "nm"}, {"measurement": "antifungal activity", "setting": "Aspergillus nidulans", "value": "complete growth inhibition"}, {"measurement": "GSD", "setting": "[5]", "value": "GSD 1.618"}, {"measurement": "Median Diam.", "setting": "[5]", "value": "Median Diam. 363.8 nm"}, {"measurement": "zeta potential", "setting": "[5]", "value": "46±2.5", "unit": "mV"}]}, {"compound": "Ac-VLIVI-KKKKK-CO-NH2 (Ac-VLIVIKKKKK-NH2) [h5V-L, lipid encasing amphipathic peptide]", "values": [{"measurement": "particle size after extrusion", "setting": "[3]", "value": "about 90 nm"}, {"measurement": "antifungal activity", "setting": "Aspergillus nidulans", "value": "a small amount of antifungal activity"}, {"measurement": "GSD", "setting": "[5]", "value": "GSD 1.528"}, {"measurement": "Median Diam.", "setting": "[5]", "value": "Median Diam. 216.5 nm"}, {"measurement": "zeta potential", "setting": "[5]", "value": "43±1.6", "unit": "mV"}]}, {"compound": "FLIVI-KKKKK (XLIVIKKKKK; (1)..(1) X is F or V)", "values": [{"measurement": "colloids remain stable in a water solution", "setting": "[6]", "value": "at least 12 months"}, {"measurement": "encapsulated", "setting": "[7]; 0.5 mM peptide concentration", "value": 25, "unit": "%"}, {"measurement": "encapsulated", "setting": "[7]; 1 mM peptide concentration", "value": 80, "unit": "%"}]}]}
